The target in test [1] is K48-linked di-UB (UniProt P0CG48). In words: ITC.
The next test concerns the target K63-linked tri-UB (UniProt P0CG48). In words: ITC.
A further test addresses K63-linked di-UB (UniProt P0CG48). In words: ITC.
The next test addresses K63-linked penta-UB (UniProt P0CG48). Nature of the test: ITC.
For another test, the target named is K63-linked tetra-UB (UniProt P0CG48). In words: ITC.
Test [2] deals with K48-linked tetra-UB (UniProt P0CG48). In words: ITC.
In test [3] the target is K48-linked tri-UB (UniProt P0CG48). Nature of the test: ITC.
For the next test, the target named is K48-linked penta-UB (UniProt P0CG48). Nature of the test: ITC.
Test [4] addresses K48-linked di-UB (UniProt P0CG48). In words: SEC-SAXS; complexes assembled at 170 μM, 1:1, in 20 mM HEPES pH 8.0, 150 mM NaCl, 1 mM TCEP; Superdex 75 10/300 increase coupled to SAXS (ESRF BM29).
Test [5] concerns the target K48-linked tetra-UB (UniProt P0CG48). Described as above.
Test [6] deals with K48-linked tri-UB (UniProt P0CG48). The description is as above.

This passage reports Kd, dH and stoichiometry N results from PMC11527256.

With “Cdu1^CA, catalytically inactive Cdu1(130-401) with C345 mutated to Ala (from UniProt B0B9A0 130-401) (enzyme)”, the Kd with K48-linked di-UB [1] was determined as 2.58 µM; in the test with K63-linked tri-UB, 3.01 µM; in the test with K63-linked di-UB it was 2.52 µM; with K63-linked penta-UB, 6.56 µM; with K63-linked tetra-UB it was 4.47 µM; in the test with K48-linked tetra-UB [2], 0.31 µM. The Kd with K48-linked tri-UB [3] was determined as 0.8 µM; in the test with K48-linked penta-UB, 0.28 µM. The dH with K48-linked di-UB [1] worked out at 3.67 kcal/mol; in the test with K63-linked tri-UB, 7.34 kcal/mol; with K63-linked di-UB, 5.99 kcal/mol; with K63-linked penta-UB, 10.9 kcal/mol; with K63-linked tetra-UB it was 9.93 kcal/mol; in the test with K48-linked tetra-UB [2], 9.63 kcal/mol. The dH with K48-linked tri-UB [3] was found to be 7.05 kcal/mol; with K48-linked penta-UB, 10 kcal/mol. Besides, the stoichiometry N was 1.02 with K48-linked di-UB [1]; 1.24 in the test with K63-linked tri-UB; 0.92 in the test with K63-linked di-UB; 2.3 in the test with K63-linked penta-UB; 1.6 with K63-linked tetra-UB; 0.99 with K48-linked tetra-UB [2]. Also, the stoichiometry N with K48-linked tri-UB [3] was 1.01; with K48-linked penta-UB, 0.99; with K48-linked di-UB [4] it was 1; in the test with K48-linked tetra-UB [5] it was 1; in the test with K48-linked tri-UB [6], 1.

As to “Cdu1^CA M149A/M153A variant (from UniProt B0B9A0 130-401) (enzyme)”, the Kd was determined as 2.91 µM with K48-linked di-UB [1], 1.24 µM in the test with K48-linked tetra-UB [2] and 1.78 µM with K48-linked tri-UB [3]. For the same substance, the dH in the test with K48-linked di-UB [1] was 1.89 kcal/mol; with K48-linked tetra-UB [2] it was 10.9 kcal/mol; with K48-linked tri-UB [3] it was 6.4 kcal/mol. The stoichiometry N came to 0.98 with K48-linked di-UB [1], 0.95 with K48-linked tetra-UB [2] and 1.01 in the test with K48-linked tri-UB [3].

“Cdu1^CA Q384A/A385R variant (from UniProt B0B9A0 130-401) (enzyme)”: the Kd is 3.44 µM with K48-linked di-UB [1], 1.42 µM with K48-linked tetra-UB [2] and 1.65 µM with K48-linked tri-UB [3]. The dH came to 3.89 kcal/mol with K48-linked di-UB [1], 7.86 kcal/mol with K48-linked tetra-UB [2] and 7.7 kcal/mol in the test with K48-linked tri-UB [3]. Further, the values for the stoichiometry N with K48-linked di-UB [1], in the test with K48-linked tetra-UB [2] and with K48-linked tri-UB [3] were 0.96, 1.14 and 1.04, respectively.
